Test [1] deals with recombinant human P-selectin (human) (UniProt P16109).
Test [2] has the same target. This is another data set of the same source.

Like-named read-outs stand apart in the source and are kept apart here.

Sequence of UniProt P16109 (P16109 42-771 limits assumed): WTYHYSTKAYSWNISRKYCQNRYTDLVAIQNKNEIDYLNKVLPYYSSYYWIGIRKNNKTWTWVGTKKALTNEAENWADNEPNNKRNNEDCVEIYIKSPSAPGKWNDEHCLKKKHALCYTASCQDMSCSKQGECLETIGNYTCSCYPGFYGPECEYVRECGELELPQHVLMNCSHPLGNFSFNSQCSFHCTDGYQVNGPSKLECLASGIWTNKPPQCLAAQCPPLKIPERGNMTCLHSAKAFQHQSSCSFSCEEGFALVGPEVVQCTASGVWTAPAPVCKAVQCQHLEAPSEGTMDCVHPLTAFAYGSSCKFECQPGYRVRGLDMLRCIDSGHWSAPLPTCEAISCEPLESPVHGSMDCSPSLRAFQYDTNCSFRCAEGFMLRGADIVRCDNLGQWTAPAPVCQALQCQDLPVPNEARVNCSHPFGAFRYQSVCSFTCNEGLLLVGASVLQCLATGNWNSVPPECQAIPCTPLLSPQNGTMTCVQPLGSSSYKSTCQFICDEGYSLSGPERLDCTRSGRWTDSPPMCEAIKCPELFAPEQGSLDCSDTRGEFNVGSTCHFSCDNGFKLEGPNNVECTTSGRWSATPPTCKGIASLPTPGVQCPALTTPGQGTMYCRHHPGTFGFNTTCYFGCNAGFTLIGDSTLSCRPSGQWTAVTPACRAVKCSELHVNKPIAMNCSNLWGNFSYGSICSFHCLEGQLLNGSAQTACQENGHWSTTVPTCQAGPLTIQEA

B1: LH (Crizanlizumab) scFv synNotch receptor (receptor, part only; not given: Myc tag, Notch core, Gal4, part only)
chain, part: DIQMTQSPSSLSASVGDRVTITCKASQSVDYDGHSYMNWYQQKPGKAPKLLIYAASNLESGVPSRFSGSGSGTDFTLTISSLQPEDFATYYCQQSDENPLTFGGGTKVEIKRGGGGSGGGGSGGGGSQVQLVQSGAEVKKPGASVKVSCKVSGYTFTSYDINWVRQAPGKGLEWMGWIYPGDGSIKYNEKFKGRVTMTVDKSTDTAYMELSSLRSEDTAVYYCARRGEYGNYEGAMDYWGQGTLVTVSS
On to B1, for which, in test [1], the Freq. of mCherry+ (BFP+ cells) at 1 ng/uL rhp-selectin amounted to 2.1%, the Freq. of mCherry+ (BFP+ cells) at 10 ng/uL rhp-selectin was determined as 13.2%, the Freq. of mCherry+ (BFP+ cells) at 25 ng/uL rhp-selectin worked out at 15.6% and the Freq. of mCherry+ (BFP+ cells) at 50 ng/uL rhp-selectin came out at 15.8%. Also, the Freq. of mCherry+ (BFP+ cells) at 100 ng/uL rhp-selectin in test [1] came to 12.1%.

B2: HL (Crizanlizumab) scFv synNotch receptor (receptor, part only; not given: Myc tag, Notch core, Gal4, part only)
chain, part: QVQLVQSGAEVKKPGASVKVSCKVSGYTFTSYDINWVRQAPGKGLEWMGWIYPGDGSIKYNEKFKGRVTMTVDKSTDTAYMELSSLRSEDTAVYYCARRGEYGNYEGAMDYWGQGTLVTVSSGGGGSGGGGSGGGGSDIQMTQSPSSLSASVGDRVTITCKASQSVDYDGHSYMNWYQQKPGKAPKLLIYAASNLESGVPSRFSGSGSGTDFTLTISSLQPEDFATYYCQQSDENPLTFGGGTKVEIKR
On to B2, for which, in test [2], the Freq. of mCherry+ (BFP+ cells) at 1 ng/uL rhp-selectin was 16.2%, the Freq. of mCherry+ (BFP+ cells) at 10 ng/uL rhp-selectin amounted to 33%, the Freq. of mCherry+ (BFP+ cells) at 25 ng/uL rhp-selectin is 32.2% and the Freq. of mCherry+ (BFP+ cells) at 50 ng/uL rhp-selectin is 25.4%. Besides, the Freq. of mCherry+ (BFP+ cells) at 100 ng/uL rhp-selectin in test [2] amounted to 18.4%.

Source of the values: patent US20260242732A1.
